Results reported in PMC5849717.
Like-named read-outs stand apart in the source and are kept apart here. Blank lines part the entries; values can stand above or below the substance they belong to.

How the values were obtained:
[1] = target: FLAG-mYFP-β2AR (β2-adrenergic receptor), total receptor pulled down with anti-FLAG (mouse) (UniProt P18762); test: single-molecule pulldown (SiMPull) with two-colour co-localisation; FLAG-mYFP-β2AR and FLAG-mCherry-β2AR co-expressed 1:1 in HEK293, ISO-treated; lysate pulled down with anti-FLAG or phospho-specific antibodies; mCherry and mYFP spots within 1 pixel (~150 nm) counted as co-localised; overlap = co-localised mYFP / total mYFP; reference mCherry-mYFP fusion gives 58.8% overlap
[2] = target: FLAG-mYFP-β2AR (β2-adrenergic receptor), total receptor pulled down with anti-FLAG (mouse) (UniProt P18762); test: single-molecule pulldown (SiMPull) with photobleaching step analysis; lysates (10 mM Tris pH 7.9, 0.1% DDM, 150 mM NaCl, 2 mM EDTA) of cells expressing mYFP-tagged receptor, untreated or ISO 5 min; captured on slides by biotinylated anti-FLAG or by phospho-specific β2AR antibodies with biotinylated secondary IgG; TIRF; bleaching steps of mYFP counted; percent dimer calculated assuming 75% active mYFP
[3] = target: GRK-phosphorylated β2AR (FLAG-mYFP-β2AR pulled down with anti-pS355/356) (mouse) (UniProt P18762); test: single-molecule pulldown (SiMPull) with two-colour co-localisation; FLAG-mYFP-β2AR and FLAG-mCherry-β2AR co-expressed 1:1 in HEK293, ISO-treated; lysate pulled down with anti-FLAG or phospho-specific antibodies; mCherry and mYFP spots within 1 pixel (~150 nm) counted as co-localised; overlap = co-localised mYFP / total mYFP; reference mCherry-mYFP fusion gives 58.8% overlap
[4] = target: GRK-phosphorylated β2AR (FLAG-mYFP-β2AR pulled down with anti-pS355/356) (mouse) (UniProt P18762); test: single-molecule pulldown (SiMPull) with photobleaching step analysis; lysates (10 mM Tris pH 7.9, 0.1% DDM, 150 mM NaCl, 2 mM EDTA) of cells expressing mYFP-tagged receptor, untreated or ISO 5 min; captured on slides by biotinylated anti-FLAG or by phospho-specific β2AR antibodies with biotinylated secondary IgG; TIRF; bleaching steps of mYFP counted; percent dimer calculated assuming 75% active mYFP
[5] = target: GRK-phosphorylated β2AR (FLAG-mYFP-β2AR pulled down with anti-pS355/356) (mouse) (UniProt P18762); test: as above; remark: listed apart in the source
[6] = target: PKA-phosphorylated β2AR (FLAG-mYFP-β2AR pulled down with anti-pS261/262) (mouse) (UniProt P18762); test: single-molecule pulldown (SiMPull) with two-colour co-localisation; FLAG-mYFP-β2AR and FLAG-mCherry-β2AR co-expressed 1:1 in HEK293, ISO-treated; lysate pulled down with anti-FLAG or phospho-specific antibodies; mCherry and mYFP spots within 1 pixel (~150 nm) counted as co-localised; overlap = co-localised mYFP / total mYFP; reference mCherry-mYFP fusion gives 58.8% overlap
[7] = target: PKA-phosphorylated β2AR (FLAG-mYFP-β2AR pulled down with anti-pS261/262) (mouse) (UniProt P18762); test: single-molecule pulldown (SiMPull) with photobleaching step analysis; lysates (10 mM Tris pH 7.9, 0.1% DDM, 150 mM NaCl, 2 mM EDTA) of cells expressing mYFP-tagged receptor, untreated or ISO 5 min; captured on slides by biotinylated anti-FLAG or by phospho-specific β2AR antibodies with biotinylated secondary IgG; TIRF; bleaching steps of mYFP counted; percent dimer calculated assuming 75% active mYFP

Sequence of FLAG-mYFP-β2AR (β2-adrenergic receptor), total receptor pulled down with anti-FLAG, P18762 1-418 (receptor; other documents disagree on this pair) (P18762 whole entry): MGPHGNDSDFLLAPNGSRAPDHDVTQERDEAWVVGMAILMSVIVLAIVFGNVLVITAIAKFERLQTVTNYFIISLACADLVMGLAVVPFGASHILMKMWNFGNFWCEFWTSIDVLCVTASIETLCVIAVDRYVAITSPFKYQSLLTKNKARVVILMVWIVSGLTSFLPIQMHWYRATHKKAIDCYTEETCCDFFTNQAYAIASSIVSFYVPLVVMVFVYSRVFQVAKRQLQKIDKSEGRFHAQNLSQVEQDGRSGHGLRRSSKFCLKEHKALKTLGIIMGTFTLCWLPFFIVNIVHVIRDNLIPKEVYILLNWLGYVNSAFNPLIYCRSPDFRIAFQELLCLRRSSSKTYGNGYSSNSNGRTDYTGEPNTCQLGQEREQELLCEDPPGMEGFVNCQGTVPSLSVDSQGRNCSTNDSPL
Sequence of GRK-phosphorylated β2AR (FLAG-mYFP-β2AR pulled down with anti-pS355/356), P18762 1-418 (receptor; phosphoserine at 355/356; phosphoserine at 355/356; other documents disagree on this pair) (P18762 whole entry): as above
Sequence of PKA-phosphorylated β2AR (FLAG-mYFP-β2AR pulled down with anti-pS261/262), P18762 1-418 (receptor; phosphoserine at 261/262; phosphoserine at 261/262; other documents disagree on this pair) (P18762 whole entry): as above

percent overlap between mYFP and mCherry copies [1]: 13.2% | percent dimers [2]: 42.7% | stoichiometry N [2]: 2
Substance: FLAG-mYFP-β2AR (β2-adrenergic receptor), total receptor pulled down with anti-FLAG, P18762 1-418 (receptor; other documents disagree on this pair)

percent overlap between mYFP and mCherry copies [3]: < 3.2% | percent monomers [4]: 86.5% | percent dimers [5]: 12% | percent monomers [5]: 88%
Substance: GRK-phosphorylated β2AR (FLAG-mYFP-β2AR pulled down with anti-pS355/356), P18762 1-418 (receptor; phosphoserine at 355/356; phosphoserine at 355/356; other documents disagree on this pair)

percent overlap between mYFP and mCherry copies [6]: > 20.4% | percent dimers [7]: 68.8% | stoichiometry N [7]: 2
Substance: PKA-phosphorylated β2AR (FLAG-mYFP-β2AR pulled down with anti-pS261/262), P18762 1-418 (receptor; phosphoserine at 261/262; phosphoserine at 261/262; other documents disagree on this pair)
